The text below walks through data of US20150044137A1.

Changes are numbered by the printed parent chain.

Test [1] has as its target RSC3 probe. Nature of the test: ELISA-type plate assay (OD450), mAb titrated on RSC3 [panel VRC13e].
The target of test [2] is RSC3 probe. Nature of the test: ELISA-type plate assay (OD450), mAb titrated on RSC3 [panel VRC13f]. (In general: ELISA stands for enzyme-linked immunosorbent assay.)
In test [3] the target is RSC3 probe. Nature of the test: ELISA-type plate assay (OD450), mAb titrated on RSC3 [panel VRC13b].
The target in test [4] is RSC3 probe. Nature of the test: ELISA-type plate assay (OD450), mAb titrated on RSC3 [panel VRC13g].
In test [5] the target is RSC3 probe. Briefly: ELISA-type plate assay (OD450), mAb titrated on RSC3 [panel VRC13d].
Test [6] addresses RSC3 probe. Briefly: ELISA-type plate assay (OD450), mAb titrated on RSC3 [panel VRC13c].

B1: VRC13e (antibody, V domains shown)
V domain 1: QPYIVQSGPAVKGAGSSVTVTCKVDGDDDGIFSFGTYFMVWVRQAPGQGLQYMGGLVPSYAPTYAHKFEGRITISAAGTPPVVSLTLLNLTNDDAATYFCARERGRHYDSKTRENRRGRYFDMWGRGTRITVSP
V domain 2: QSVLTQPASVSGSPGQTISISCSGTFGSDSVSWYQQYPNSAPTLIIFDVHRRPSGISTRFSGSTSGDTASLTISTLHREDEAYYYCTSHPYDFGGGTYVIVL
For B1, the EC50 (read off the curve) (in general, the concentration needed to bring the measured effect to its halfway point) with RSC3 probe [1] is 0.02 µg/mL.

B2: VRC13f (antibody, V domains shown)
V domain 1: B1 V domain 1 with K23R, S33N, L88I, D93A
V domain 2: B1 V domain 2 with Y37F, Y83F
As to B2, in the test with RSC3 probe [2], the EC50 (read off the curve) turned out to be 0.02 µg/mL.

B3: VRC13b (antibody, V domains shown)
VH: QVQLVQSGTALKSPGSSAKLSCTVLGDEFGTYFISWIRQAPGQGLEWVGGIVPHSQLQSSAQKFHGRIIISAGAGVTPPVVSLQLTNLTFEDTGTYFCARERGRHRDPKTGDALRGRYFDFWGRGTGVSVSA
VL: QSVLTQPAFVSGSPGQSITLSCTLGTEDVSWYQQRPNSAPRLIIFDVKKRPSDVSDRFSGHNSDTAAFLTISELRPEDEAEYFCTSWPYRFGRGTKVDVA
B3: the EC50 (read off the curve) with RSC3 probe [3] was 0.02 µg/mL.

B4: VRC13g (antibody, V domains shown)
VH: QIELRQSGAAMKSPGSSVKLSCTVLGENFGTYFISWIRQAPGQGLEWVGGIVPHSQLQSSAQKFHGRIKISGGGTPPVVSLELTNVTFDDTGTYFCARERGRHVEPKTGDRLAGRYFDIWGRGTGLRVSP
VL: QSVLTQPAFVSGSPGQSITISCTVGTTDVSWYQQRPNSAPRLIIFDVKKRPSGVSDRFSGSSSDNAAFLTIAGLRPEDEAEYYCTSWPYRFGRGTKVDVG
For B4, the EC50 (read off the curve) with RSC3 probe [4] came to 0.02 µg/mL.

B5: VRC13d (antibody, V domains shown)
VH: QVQLVQSGAVVKSPGSSAKLSCRLLGDEFGTYFISWIRQAPGRGLEWVGGIVPHSQLQSSAQKFHGRFFITGGVTPPIIFLQLTNVTFEDTGTYFCARERGRHRDPKTGKSLRGRYFDFWGRGTGVTVSP
VL: QSVLTQPAFVSASPGQSITLSCNLGTDYVSWYQQRPSSAPRLIIFDVKNRPSGVSDRFSGYNSDTAAFLTISGLQPEDEAEYYCTSWPYNFGPGTKVDVT
In the test with RSC3 probe [5], B5 showed an EC50 (read off the curve) of 0.02 µg/mL.

B6: VRC13c (antibody, V domains shown)
VH: QLQLDQPGAAMKSLGSSLTITCRVSGDDLGSFHFGTYFMIWVRQGPGQGLEYMGGILPSTKTPTYAHKFRGRVSISAPGVPPVLSLALTNLTYDDTATYFCARERGRHFEPKNRDHLEGKFLDLWGRGTFVRVSP
VL: QSVLTQPASVSGSPGQSINISCAGRSDRVSWYQQRPNGVPKLLLFDVYRRPSGVSDRFSGSHSDDTAFLTISGLQTDDEADYYCTSHPYAFGPGTKVNVL
For the molecule B6, the EC50 (read off the curve) in the test with RSC3 probe [6] was found to be 0.02 µg/mL.
